Laboratory results from US20020111475A1 (IMMUNEX, published 2002).

Assays:
[1] = target: T1, flt3 on murine WWF7 cells; assay: cell-based or functional assay
T1 sequence (Q00342 whole entry, looked up): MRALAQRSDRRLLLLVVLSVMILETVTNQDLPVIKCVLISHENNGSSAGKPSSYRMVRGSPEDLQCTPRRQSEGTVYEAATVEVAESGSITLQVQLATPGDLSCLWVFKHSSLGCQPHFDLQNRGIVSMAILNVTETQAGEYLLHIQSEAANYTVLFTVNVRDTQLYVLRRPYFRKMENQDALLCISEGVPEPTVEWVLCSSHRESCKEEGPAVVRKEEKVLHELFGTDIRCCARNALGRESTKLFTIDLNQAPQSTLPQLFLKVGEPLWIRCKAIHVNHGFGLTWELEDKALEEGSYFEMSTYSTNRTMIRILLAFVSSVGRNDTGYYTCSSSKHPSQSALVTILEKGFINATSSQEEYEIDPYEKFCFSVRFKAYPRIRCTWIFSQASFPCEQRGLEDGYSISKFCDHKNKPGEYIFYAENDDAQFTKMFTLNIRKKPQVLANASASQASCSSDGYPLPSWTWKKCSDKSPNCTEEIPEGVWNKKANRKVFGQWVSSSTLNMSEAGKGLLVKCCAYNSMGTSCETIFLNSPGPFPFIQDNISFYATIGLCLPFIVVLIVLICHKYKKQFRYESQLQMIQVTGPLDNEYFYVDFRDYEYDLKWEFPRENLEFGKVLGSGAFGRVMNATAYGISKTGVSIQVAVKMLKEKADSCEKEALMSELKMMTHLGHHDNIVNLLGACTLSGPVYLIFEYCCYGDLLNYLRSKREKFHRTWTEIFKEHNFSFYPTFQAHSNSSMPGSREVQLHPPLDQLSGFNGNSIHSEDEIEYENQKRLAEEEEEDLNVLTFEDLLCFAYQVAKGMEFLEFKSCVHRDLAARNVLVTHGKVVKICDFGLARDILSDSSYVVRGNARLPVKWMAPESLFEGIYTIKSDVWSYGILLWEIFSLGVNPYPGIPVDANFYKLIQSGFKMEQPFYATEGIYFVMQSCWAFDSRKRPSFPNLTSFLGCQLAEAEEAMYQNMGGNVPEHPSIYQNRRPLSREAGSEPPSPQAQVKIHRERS

[2] = target: T2, human flt3 on BAF/hflt3 cells (BAF-BO3 cells transfected with human flt3 cDNA) (human, UniProt P36888 27-993); assay: Kdi: inhibition of binding of radiolabelled yeast-derived flt3-L to BAF-BO3 cells transfected with human flt3
T2 construct: whole, on cells; also called flt3 Receptor
T2 sequence (looked up): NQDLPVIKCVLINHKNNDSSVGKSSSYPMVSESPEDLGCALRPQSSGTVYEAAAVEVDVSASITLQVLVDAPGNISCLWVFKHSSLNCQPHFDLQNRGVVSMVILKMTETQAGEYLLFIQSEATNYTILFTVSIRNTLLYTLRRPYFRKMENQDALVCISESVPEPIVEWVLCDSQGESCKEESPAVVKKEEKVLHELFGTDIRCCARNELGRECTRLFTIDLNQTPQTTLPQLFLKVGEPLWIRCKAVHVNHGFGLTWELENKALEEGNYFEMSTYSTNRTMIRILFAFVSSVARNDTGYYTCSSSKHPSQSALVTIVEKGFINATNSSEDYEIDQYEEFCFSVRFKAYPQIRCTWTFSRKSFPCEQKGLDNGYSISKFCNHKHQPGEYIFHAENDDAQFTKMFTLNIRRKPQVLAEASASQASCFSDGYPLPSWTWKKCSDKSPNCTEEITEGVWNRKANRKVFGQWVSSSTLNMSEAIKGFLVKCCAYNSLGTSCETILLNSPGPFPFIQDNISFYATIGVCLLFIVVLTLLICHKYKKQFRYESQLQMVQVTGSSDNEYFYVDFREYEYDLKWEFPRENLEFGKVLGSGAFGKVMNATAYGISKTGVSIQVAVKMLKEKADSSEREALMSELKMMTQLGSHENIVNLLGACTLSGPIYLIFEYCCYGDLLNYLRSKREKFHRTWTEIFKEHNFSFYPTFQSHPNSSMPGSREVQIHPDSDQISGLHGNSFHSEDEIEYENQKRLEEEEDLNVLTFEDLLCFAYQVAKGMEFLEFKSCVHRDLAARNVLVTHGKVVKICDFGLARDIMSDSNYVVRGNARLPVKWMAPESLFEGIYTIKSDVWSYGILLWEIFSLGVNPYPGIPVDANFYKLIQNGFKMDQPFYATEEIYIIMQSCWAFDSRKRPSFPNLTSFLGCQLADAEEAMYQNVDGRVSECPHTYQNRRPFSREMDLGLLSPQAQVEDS
Protocol: (§1) Binding assays were performed using a phthalate oil separation method as described previously for murine ¹²⁵I-GM-CSF (Park et al., J. Biol. Chem. 261:4177-4183 (1986)). Briefly, BAF-BO3 cells transfected with human flt3 cDNA (0.5-1×10⁶) were incubated with serial dilutions of ¹²⁵I-flt3-L in binding medium (RPMI 1640, 2.5% bovine serum albumin, 0.2% NaN3, 20 mM Hepes, pH 7.2) in 96 well microtiter plates maintained on a mini-orbital shaker (Bellco) at 37° C. for 90 minutes. Inhibition binding assays were carried out by holding the radiolabeled flt3-L concentration constant at 0.3 nM, while the concentration of unlabeled competitor proteins ranged from 150 nM to 0.001 nM. The ratio of Kdi of mutant to wild type flt3-L, determined in at least duplicate, in a given assay was averaged over at least three independent assays and the standard error of the mean (SEM) reported. […]
Specific activity of purified mutant or wild type protein was calculated as the ratio of proliferation activity in BAF/hflt3 cells (units/ml) to concentration of flt3-L protein as determined by amino acid composition (ng/ml). The ratio of specific activity of mutant to wild type flt3-L, determined in duplicate, in a given assay was averaged over at least three independent assays and the standard error of the mean (SEM) is reported. […]

[3] = target: T2, human flt3 on BAF/hflt3 cells (BAF-BO3 …); assay: inhibition of 125I-flt3-L binding to BAF/hflt3 cells, purified protein
Protocol: Binding assays were performed using a phthalate oil separation method as described previously for murine ¹²⁵I-GM-CSF (Park et al., J. Biol. Chem. 261:4177-4183 (1986)). Briefly, BAF-BO3 cells transfected with human flt3 cDNA (0.5-1×10⁶) were incubated with serial dilutions of ¹²⁵I-flt3-L in binding medium (RPMI 1640, 2.5% bovine serum albumin, 0.2% NaN3, 20 mM Hepes, pH 7.2) in 96 well microtiter plates maintained on a mini-orbital shaker (Bellco) at 37° C. for 90 minutes. Inhibition binding assays were carried out by holding the radiolabeled flt3-L concentration constant at 0.3 nM, while the concentration of unlabeled competitor proteins ranged from 150 nM to 0.001 nM. The ratio of Kdi of mutant to wild type flt3-L, determined in at least duplicate, in a given assay was averaged over at least three independent assays and the standard error of the mean (SEM) reported. […] For this assay, cells expressing human flt3 (BAF/hflt3 cells) were constructed from BAF/B03 cells, using a procedure previously described for producing BAF/B03 cells expressing the murine flt3 (Lyman et al., Cell 75:1157-1167 (1993)). Expression of human flt3 by BAF/hflt3 cells was confirmed by examining the capacity of the cells to proliferate in response to soluble flt3-L, and by flow cytometric analysis using biotinylated flt3-L.
^aThe specific activity of purified mutant or wild type protein was determined by taking the ratio of proliferation activity in BAF/hflt3 cells (units/ml) to concentration of flt3-L protein as determined by amino acid composition (ng/ml). The ratio of specific activity of mutant to wild type flt3-L is averaged over three independent assays, and the standard error of the mean (SEM) is reported. ^bThe Kdifor wild type protein is 61 ± 19 pM (n = 2). The ratio of Kₐᵢ of mutant to wild type flt3-L is averaged over two independent assays and the standard deviation is reported.

[4] = target: T2, human flt3 on BAF/hflt3 cells (BAF-BO3 …); assay: cell-based or functional assay
[5] = target: T2, human flt3 on BAF/hflt3 cells (BAF-BO3 …); assay: direct binding of serial dilutions of 125I-flt3-L to BAF-BO3 cells transfected with human flt3, 37 C, phthalate oil separation (n=7)
Protocol: as §1
(§2) The ordinate is the Log¹⁰ of the value relative to wild type flt3-L, and the abscissa is the flt3-L mutant designation. […] The ratio of Kₐᵢ mutant to wild type flt3-L, determined in at least duplicate, in a given assay is averaged over at least three independent assays and the standard error of the mean (SEM) is reported.

[6] = target: T2, human flt3 on BAF/hflt3 cells (BAF-BO3 …); assay: Kdi: inhibition of 125I-flt3-L binding to BAF/hflt3 cells, the assays of Table 3
[7] = target: T2, human flt3 on BAF/hflt3 cells (BAF-BO3 …); assay: Kdi: inhibition by unlabelled flt3-L of 0.3 nM 125I-flt3-L binding to BAF-BO3 cells transfected with human flt3 (n=7)
Protocol: as §1, §2

B1: flt3-L mutant S13F (ligand)
chain: LSGTQDCSFQHSPISFDFAVKIRELSDYLLQDYPVTVASNLQDEELCGGLWRLVLAQRWMERLKTVAGSKMQGLLERVNTEIHFVTKCAFQPPPSCLRFVQTNISRLLQETSEQLVALKPWITRQNFARCLELQCQPDSSTLPPPWSPRPLEATAPTAPQPPLLLLLLLPVGLLLLAAAWCLHWQRTRRRTPRPGEQVPPVPSPQDLLLVEH
B1 was tested. Which “Sp.Ac. MUT / Sp.Ac. WT (WWF7 cell proliferation units/ml per flt3-L ng/ml by ELISA, yeast supernatant)” value [1] did it give?
The value was 0 ratio to wild type.

B2: recombinant CHO-derived human flt3-L, which has native human sequence (ligand)
chain: TQDCSFQHSPISSDFAVKIRELSDYLLQDYPVTVASNLQDEELCGGLWRLVLAQRWMERLKTVAGSKMQGLLERVNTEIHFVTKCAFQPPPSCLRFVQTNISRLLQETSEQLVALKPWITRQNFSRCLELQCQPDSSTLPPPWSPRPLEATAPTAPQP
For B2, which Ki [2] is on record?
Its Ki is 0.08 nM.

B3: wild type flt3-L (yeast-derived recombinant human flt3 Ligand) (ligand)
chain: LSGTQDCSFQHSPISSDFAVKIRELSDYLLQDYPVTVASNLQDEELCGGLWRLVLAQRWMERLKTVAGSKMQGLLERVNTEIHFVTKCAFQPPPSCLRFVQTNISRLLQETSEQLVALKPWITRQNFARCLELQCQPDSSTLPPPWSPRPLEATAP
notes: Secreted from yeast (alpha-factor leader, final plasmid PIXY797); Leu-Ser-Gly stands before Thr1 of the mature protein (80% of chains; 20% begin at Ser); Noncovalent dimer (dimer peak collected); also called WT; 125I-flt3-L (radiolabelled form)
With B3 as the binder, how does the “Kai MUT / Kai Wt” value [3] read?
The value was 1 ratio to wild type.

And the “Sp.Ac. MUT / Sp.Ac. Wt (BAF/hflt3 cell proliferation units/ml per ng/ml purified protein)” value [4]?
The value was 1 ratio to wild type.

What about the Kd [5] of the same binder?
Its Kd is 0.13 nM.

What about the Ki [6] of the same binder?
The Ki was 0.061 nM.

And the Ki [7]?
Its Ki is 0.09 nM.

B4: flt3-L mutant H8Y (ligand)
chain: LSGTQDCSFQYSPISSDFAVKIRELSDYLLQDYPVTVASNLQDEELCGGLWRLVLAQRWMERLKTVAGSKMQGLLERVNTEIHFVTKCAFQPPPSCLRFVQTNISRLLQETSEQLVALKPWITRQNFARCLELQCQPDSSTLPPPWSPRPLEATAP
notes: yeast supernatant and purified protein (dimer)
How did the “Kai MUT / Kai Wt” value [3] turn out when B4 was run?
The value was 2.8 ratio to wild type.

What about the “Sp.Ac. MUT / Sp.Ac. Wt (BAF/hflt3 cell proliferation units/ml per ng/ml purified protein)” value [4] of the same binder?
The value was 2.1 ratio to wild type.

B5: flt3-L multiple mutant K84E/Q122R (ligand)
chain: LSGTQDCSFQHSPISSDFAVKIRELSDYLLQDYPVTVASNLQDEELCGGLWRLVLAQRWMERLKTVAGSKMQGLLERVNTEIHFVTECAFQPPPSCLRFVQTNISRLLQETSEQLVALKPWITRRNFARCLELQCQPDSSTLPPPWSPRPLEATAP
notes: also called double mutant K84E/Q122R
What does the source list for B5?
Kai MUT / Kai Wt [3]: 3.4 ratio to wild type; Sp.Ac. MUT / Sp.Ac. Wt (BAF/hflt3 cell proliferation units/ml per ng/ml purified protein) [4]: 2.9 ratio to wild type

B6: flt3-L quadruply substituted mutant L-3H/H8Y/K84E/Q122R (ligand)
chain: HSGTQDCSFQYSPISSDFAVKIRELSDYLLQDYPVTVASNLQDEELCGGLWRLVLAQRWMERLKTVAGSKMQGLLERVNTEIHFVTECAFQPPPSCLRFVQTNISRLLQETSEQLVALKPWITRRNFARCLELQCQPDSSTLPPPWSPRPLEATAP
notes: Constructed by PCR mutagenesis from K84E/Q122R, expressed in yeast and purified
For B6, which “Kai MUT / Kai Wt” value [3] is on record?
Its value is 8.6 ratio to wild type.

What about the “Sp.Ac. MUT / Sp.Ac. Wt (BAF/hflt3 cell proliferation units/ml per ng/ml purified protein)” value [4] of the same binder?
The value was 3 ratio to wild type.
